Assay results published in patent publication US20260216242A1 (ALMAC DISCOVERY, published 2026).

Key:
human ALPP on CHO cells = biological target: T1, human ALPP on CHO cells (human, UniProt P05187 23-506); assay: flow cytometry, CHO cells stably expressing human ALPP; PDC detected with FITC anti-human Ab
T1 construct: whole, on cells; also called CHO-ALPP
Experimental: (§1) Biparatopic VHH-hFc drug conjugates were assessed for human ALPP, ALPPL2, ALPI and ALPL cell-surface binding by flow cytometry. Binders were screened on CHO cells stably expressing human ALPP, ALPPL2, ALPI or ALPL.
(§2) Cell surface binding of test agents to hALPP isoforms was characterized in four CHO-ALPP isoform transfectant cell lines (CHO-ALPP, CHO-ALPPL2, CHO-ALPI and CHO-ALPL) and the resulting KDapp values determined. Adherent cells were detached from tissue culture flasks by incubating with 0.1% EDTA/PBS solution at 37° C. for […] or until cells detached easily. Cells were re-suspended in ice-cold PBS/2% FCS in 15 ml tubes and centrifuged at 1700 rpm for 5 mins at 4° C. Supernatant was removed and the cell pellet re-suspended in PBS/2% FCS. […] Cells were incubated with 100 μl of test agents at a range of concentrations, plus controls for 1 hr on ice. The sample plate was centrifuged at 1700 rpm for 5 mins at 4° C. The supernatant was removed, and a wash performed by re-suspending the cell pellets in 0.25 mL of ice-cold PBS/2% FCS using a multichannel pipette. Samples were again centrifuged at 1700 rpm for 5 min at 4° C. Supernatant was removed and two further washes performed as described. […] Binding of VHH-hFc agents was determined by adding 100 μl of Fitc-anti-human Ab (ThermoFisher) and incubating for 30 mins on ice in the dark. […]

human ALPL on CHO cells = biological target: T2, human ALPL on CHO cells (human, UniProt P05186 18-501); assay: flow cytometry, CHO cells stably expressing human ALPL; PDC detected with FITC anti-human Ab
T2 construct: whole, on cells; also called CHO-ALPL
T2 sequence (looked up): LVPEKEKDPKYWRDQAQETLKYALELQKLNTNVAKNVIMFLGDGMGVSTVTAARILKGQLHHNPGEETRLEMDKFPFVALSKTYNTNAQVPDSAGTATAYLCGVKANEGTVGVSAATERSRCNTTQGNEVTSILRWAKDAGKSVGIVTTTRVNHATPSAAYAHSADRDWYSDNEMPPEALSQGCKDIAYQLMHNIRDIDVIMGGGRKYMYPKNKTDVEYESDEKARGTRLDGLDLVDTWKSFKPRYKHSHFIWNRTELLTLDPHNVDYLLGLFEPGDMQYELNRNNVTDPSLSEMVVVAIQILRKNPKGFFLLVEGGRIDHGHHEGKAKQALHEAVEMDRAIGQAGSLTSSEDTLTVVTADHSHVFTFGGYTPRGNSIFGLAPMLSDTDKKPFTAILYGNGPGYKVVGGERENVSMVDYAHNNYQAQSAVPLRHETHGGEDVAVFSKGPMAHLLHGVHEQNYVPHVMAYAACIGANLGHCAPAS
Outline: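 Cell-surface binding to CHO cells stably transfected with human ALPP, ALPPL2, ALPI or ALPL; cells detached with 0.1% EDTA/PBS, incubated with biparatopic VHH-hFc drug conjugates over a concentration range for 1 hr on ice. Bound agent detected with FITC anti-human Ab (30 min, ice, dark) by flow cytometry; KDapp derived from binding.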

[1] = biological target: T3, human ALPPL2 on CHO cells (human, UniProt P10696 20-503); assay: flow cytometry, CHO cells stably expressing human ALPPL2; PDC detected with FITC anti-human Ab
T3 construct: whole, on cells; also called CHO-ALPPL2
Experimental: as §1, §2

B1: D10-A06-hFc-vcPAB-MMAE [G4S]1 (Fc fusion, DAR 4)
chain 1: QVQLVESGGGLVQPGGSLRLSCAASGSIFSVNTMGWYRQAPGKQRDLVAVATSGGTIHYADSVKGRFTISRDNAKNTVYLQMNSLKPEDTAVYYCNLVVPYGMIAGDHDYWGQGTKVTVSSGGGGSEPKSSDKTHTCPPCPAPELLGGPCVFLFPPKPKDTLMISRTPEVTCVVVDVSHEDPEVKFNWYVDGVEVHNAKTKPREEQYNSTYRVVSVLTVLHQDWLNGKEYKCKVSNKALPAPIEKTISKAKGQPREPQVYTLPPSRDELTKNQVSLYCLVKGFYPSDIAVEWESNGQPENNYKTTPPVLDSDGSFFLYSKLTVDKSRWQQGNVFSCSVMHEALHNHYTQKSLCLSPGK
chain 2: QVHLVESGGGLVQAGGSLRLSCAASGRTFLSMGWFRQAPGKEREFVAAISWTGGSTGYADSVKGRFTISRESDKETMYLQMNSLKPEDTAVYYCAARGDVYYGGDDATRYKYWGQGTQVTVSSGGGGSEPKSSDKTHTCPPCPAPELLGGPCVFLFPPKPKDTLMISRTPEVTCVVVDVSHEDPEVKFNWYVDGVEVHNAKTKPREEQYNSTYRVVSVLTVLHQDWLNGKEYKCKVSNKALPAPIEKTISKAKGQPREPQVYTLPPSRDELTKNQVSLTCLVKGFYPSDIAVEWESNGQPENNYKTTPPVLDSDGSFFLTSKLTVDKSRWQQGNVFSCSVMHEALHNHYTQKSLCLSPGK
modifications: MC-vc-PAB-MMAE on Cys 239 and Cys 442 (EU numbering)
notes: Biparatopic drug conjugate, DAR 4; also called #676
EC50 (read off the curve) (human ALPP on CHO cells): 10 to 22 nM | binding result (human ALPL on CHO cells): no binding (tested: 350 nM)

B2: D10-A06 hFc-vcPAB-MMAE [G4S]3 (Fc fusion, DAR 4)
chain 1: QVQLVESGGGLVQPGGSLRLSCAASGSIFSVNTMGWYRQAPGKQRDLVAVATSGGTIHYADSVKGRFTISRDNAKNTVYLQMNSLKPEDTAVYYCNLVVPYGMIAGDHDYWGQGTKVTVSSGGGGSGGGGSGGGGSEPKSSDKTHTCPPCPAPELLGGPCVFLFPPKPKDTLMISRTPEVTCVVVDVSHEDPEVKFNWYVDGVEVHNAKTKPREEQYNSTYRVVSVLTVLHQDWLNGKEYKCKVSNKALPAPIEKTISKAKGQPREPQVYTLPPSRDELTKNQVSLYCLVKGFYPSDIAVEWESNGQPENNYKTTPPVLDSDGSFFLYSKLTVDKSRWQQGNVFSCSVMHEALHNHYTQKSLCLSPGK
chain 2: QVHLVESGGGLVQAGGSLRLSCAASGRTFLSMGWFRQAPGKEREFVAAISWTGGSTGYADSVKGRFTISRESDKETMYLQMNSLKPEDTAVYYCAARGDVYYGGDDATRYKYWGQGTQVTVSSGGGGSGGGGSGGGGSEPKSSDKTHTCPPCPAPELLGGPCVFLFPPKPKDTLMISRTPEVTCVVVDVSHEDPEVKFNWYVDGVEVHNAKTKPREEQYNSTYRVVSVLTVLHQDWLNGKEYKCKVSNKALPAPIEKTISKAKGQPREPQVYTLPPSRDELTKNQVSLTCLVKGFYPSDIAVEWESNGQPENNYKTTPPVLDSDGSFFLTSKLTVDKSRWQQGNVFSCSVMHEALHNHYTQKSLCLSPGK
modifications: MC-vc-PAB-MMAE on Cys 239 and Cys 442 (EU numbering)
notes: Biparatopic drug conjugate, DAR 4; also called #633
EC50 (read off the curve) [1]: ~5 nM | binding result (human ALPL on CHO cells): no binding (tested: 350 nM)
